Results taken from patent publication US20110002929A1 (Ablynx, published 2011).
Positions count from the first letter of the chain named. Values belong to the binder of their own block, whether it stands above or below them.

Key:
[1] = target: T1, mouse RANK-L (mouse, UniProt O35235 158-316, limits assumed); assay: ELISA, set-up as for human RANK-L
T1 construct: also called murine RANK-L
T1 sequence (looked up): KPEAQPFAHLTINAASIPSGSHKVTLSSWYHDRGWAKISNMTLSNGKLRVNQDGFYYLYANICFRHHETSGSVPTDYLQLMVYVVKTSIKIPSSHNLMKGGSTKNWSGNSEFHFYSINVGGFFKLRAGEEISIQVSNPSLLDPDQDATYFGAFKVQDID
Method: (§1) Therefore 2 μg/ml neutravidin was coated overnight at 4° C. The plates were washed 5 times with 300 μl PBS and then blocked with […] 1% casein/PBS for 2 hours at room temperature. […] After extensive washing with PBS, varying concentrations of Nanobodies starting from 500 nM to 160 pM diluted in 1% casein/PBS were added to the wells and the plates were incubated for 1 hour at room temperature. Bound Nanobodies were detected by subsequent incubations of a primary mouse anti-myc antibody and a secondary anti mouse-HRP conjugate (DAKO, Glostrup, Denmark) and using TMB-H2O2 (Pierce, Rockford, Ill., USA) substrate cocktail. The reaction was stopped with H₂SO₄ and the OD was read at 450 nm.

[2] = target: T2, human RANK-L (human, UniProt O14788 140-317, limits assumed); assay: ELISA (ED50), biotin-hRANK-L on neutravidin
T2 construct: Soluble protein, used coated, biotinylated or labelled in ELISA, AlphaScreen, FMAT and Biacore; also called hRANK-L; soluble human RANK-L
T2 sequence (looked up): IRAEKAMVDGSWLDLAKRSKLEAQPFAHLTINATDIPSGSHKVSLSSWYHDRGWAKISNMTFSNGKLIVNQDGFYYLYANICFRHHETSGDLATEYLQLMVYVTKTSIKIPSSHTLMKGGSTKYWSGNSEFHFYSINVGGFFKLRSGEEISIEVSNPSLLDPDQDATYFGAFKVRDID
Method: as §1

[3] = target: T2, human RANK-L; assay: AlphaScreen, biotin-hRANK-L / RANK-huFc beads
Method: To this mixture, the RANK acceptor beads and the streptavidin donor beads were added and further incubated for 1 hour at room temperature. Fluorescence was measured by reading plates on the EnVision Multilabel Plate Reader (Perkin Elmer) using an excitation wavelength of 680 nm and an emission wavelength of 520 nm.

[4] = target: T2, human RANK-L; assay: AlphaScreen, biotin-hRANK-L / RANK-huFc beads; remark: listed apart in the source
[5] = target: T3, human RANK-L, full length, membrane-bound, expressed on HEK293T cells (human, UniProt O14788 1-317); assay: FACS, HEK293T with human RANK-L, 16 pM Nanobody
T3 construct: whole, on cells; also called hRANK-L
T3 sequence (looked up): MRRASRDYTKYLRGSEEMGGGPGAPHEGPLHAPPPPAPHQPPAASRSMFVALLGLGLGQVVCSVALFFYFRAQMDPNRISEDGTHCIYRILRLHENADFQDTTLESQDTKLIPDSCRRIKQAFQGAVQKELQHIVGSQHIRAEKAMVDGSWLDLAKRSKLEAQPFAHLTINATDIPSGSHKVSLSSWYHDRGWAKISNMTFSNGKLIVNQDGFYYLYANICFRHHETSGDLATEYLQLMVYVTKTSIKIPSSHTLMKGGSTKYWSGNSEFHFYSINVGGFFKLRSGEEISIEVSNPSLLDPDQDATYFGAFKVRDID
Method: (§2) Human embryonic kidney cells (HEK293T) were grown in Dulbecco's modified Eagles's medium supplemented with 10% fetal bovine serum (FBS), […] L-glutamine, 0.4 mM sodium pyruvate. […] After 48 hours, transfected cells were subjected to FACS analysis. […] Then cells were washed three times with FACS buffer. Bound Nanobodies were detected by subsequent incubations of a primary mouse anti Myc antibody (30 min at 4° C. (2 μg/ml)) and a second incubation with goat anti mouse-Phycoerythrin (PE) (Jackson Laboratories) for another 30 min at 4° C. Finally, after washing, the cells were resuspended in PBS+10% FBS+TO-PRO®-3 (5 nM) (Molecular Probes®, Invitrogen, Merelbeke, Belgium) and cell surface fluorescence expressed as mean PE fluorescence, was measured using flow cytometry.

[6] = target: T3, human RANK-L, full length, …; assay: FACS, HEK293T with human RANK-L, 80 pM Nanobody
Method: as §2

[7] = target: T3, human RANK-L, full length, …; assay: FACS, HEK293T with human RANK-L, 3.2 pM Nanobody
Method: as §2

[8] = target: T3, human RANK-L, full length, …; assay: FACS, HEK293T with human RANK-L, 400 pM Nanobody
Method: as §2

[9] = target: T3, human RANK-L, full length, …; assay: FACS, HEK293T with human RANK-L, 2000 pM Nanobody
Method: as §2

[10] = target: T4, TNFα (UniProt P01375 77-233); assay: competition ELISA on RANK-L-coated plates, 1 nM Nanobody preincubated with the ligand
T4 construct: also called TNF-alpha
T4 sequence (P01375 77-233 limits assumed): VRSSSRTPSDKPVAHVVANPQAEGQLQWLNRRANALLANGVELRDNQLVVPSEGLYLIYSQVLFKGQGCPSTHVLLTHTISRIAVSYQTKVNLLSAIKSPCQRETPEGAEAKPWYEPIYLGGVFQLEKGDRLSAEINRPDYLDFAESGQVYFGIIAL

[11] = target: T5, CD40 ligand (UniProt P29965 113-261, limits assumed); assay: as above
T5 sequence (looked up): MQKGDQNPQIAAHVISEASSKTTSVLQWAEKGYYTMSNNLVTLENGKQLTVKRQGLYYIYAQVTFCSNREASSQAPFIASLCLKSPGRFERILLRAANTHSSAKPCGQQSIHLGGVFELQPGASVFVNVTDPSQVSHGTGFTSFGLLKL

[12] = target: T6, TRAIL (UniProt P50591 114-281, limits assumed); assay: as above
T6 construct: also called tumor necrosis factor-related apoptosis inducing ligand
T6 sequence (P50591 114-281 limits assumed): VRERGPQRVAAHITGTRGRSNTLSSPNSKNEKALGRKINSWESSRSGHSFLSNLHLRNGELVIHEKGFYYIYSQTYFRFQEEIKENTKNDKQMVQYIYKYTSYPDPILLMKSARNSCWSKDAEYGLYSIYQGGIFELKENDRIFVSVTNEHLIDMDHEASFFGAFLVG

[13] = target: T2, human RANK-L; assay: cell-based or functional assay
[14] = target: T2, human RANK-L; assay: FMAT, ALEXA647-hRANK-L / RANK on HEK293T cells
Method: HEK293T cells were transiently transfected with the plasmid expressing full length RANK using Fugene6 as described in example 3. After 24 hours aliquots of 60 μl (7.5×10³ cells) were plated into FMAT system 384-well plates (PE Biosystems, CA, US) and allowed to adhere for 24 h. After overnight adherence, culture supernatant was removed by gently tapping the plate. […] The plates were scanned after 10 hours of incubation. Cell surface fluorescence was measured by 8200 Cellular Detection System (Applied Biosystems, Foster City, Calif., US) which is a fluorescence macro-confocal, biological binding event analyzer that enables mix-and-read assays with live cells.

[15] = target: T7, cynomolgus RANK-L, full length, membrane-bound, expressed on HEK293T cells (cynomolgus monkey, UniProt A0A7N9DBU4 1-317); assay: FACS, HEK293T with cynomolgus RANK-L, 400 pM Nanobody
T7 construct: whole, on cells; also called cyno RANK-L
T7 sequence: T3 sequence (looked up) with A32T, F68L, G83S, D174N, S177T, I291V
Method: as §2

[16] = target: T7, cynomolgus RANK-L, full length, …; assay: FACS, HEK293T with cynomolgus RANK-L, 2000 pM Nanobody
Method: as §2

[17] = target: T2, human RANK-L; assay: AlphaScreen, biotin-hRANK-L / RANK-huFc beads; remark: listed apart in the source
[18] = target: T2, human RANK-L; assay: AlphaScreen, biotin-hRANK-L / RANK-huFc beads; remark: listed apart in the source
[19] = target: T2, human RANK-L; assay: FMAT, ALEXA647-hRANK-L / RANK on HEK293T cells; remark: listed apart in the source
[20] = target: T2, human RANK-L; assay: SPR Biacore 3000, hRANK-L on CM5, 100 nM Nanobody
Method: (§3) Binding kinetics of the humanized versions of Nanobodu RANL13 were also analysed by Surface Plasmon Resonance (Biacore 3000). […] Nanobody binding was assessed at one concentration (100 nM). Each Nanobody was injected for 4 minutes at a flow rate of 45 μl/min to allow binding to chip-bound antigen. Next, binding buffer without Nanobody was sent over the chip at the same flow rate to allow spontaneous dissociation of bound Nanobody.

[21] = target: T2, human RANK-L; assay: SPR Biacore 3000, hRANK-L on CM5, 100 nM Nanobody; only indicative (one concentration)
Method: as §3

[22] = target: T2, human RANK-L; assay: AlphaScreen, biotin-hRANK-L / RANK-huFc beads; remark: listed apart in the source
[23] = target: T2, human RANK-L; assay: FMAT, ALEXA647-hRANK-L / RANK on HEK293T cells; remark: listed apart in the source

B2: RANKL15 (VHH, not shown: small tags and cut ends)
VHH: EVQLVESGGGLVQAGGSLRLSCAAAGGTFRNYVMGWFRQAPGKEREFVTAISTGGSWTGYVDSVKDRFTISRDNTKNTVYLQMASLKPEDTAVYYCAATTPATTYLPRSERQYDYWGQGTQVTVSS
RANK-L induced NF-kappaB activation (luciferase reporter, HEK293T cells), IC50 [13]: 10000 pM
binding result [1]: no binding (tested: 500 nM to 160 pM)
EC50 [2]: 266 pM
IC50 [3]: 283 pM
IC50 [4]: 572 pM
IC50 [14]: 534 pM
PE mean fluorescence [5]: 250
PE mean fluorescence [6]: 715
PE mean fluorescence [7]: 124
PE mean fluorescence [8]: 2640
PE mean fluorescence [9]: 7720
PE mean fluorescence [15]: 3410
PE mean fluorescence [16]: 11000
binding result [10]: no binding (tested: approximately 100 nM)
binding result [11]: no binding (tested: approximately 100 nM)
binding result [12]: no binding (tested: approximately 100 nM)

B4: RANKL13hum5 (VHH)
VHH: EVQLVESGGGLVQPGGSLRLSCAASGFTFSSYPMGWFRQAPGKGREFVSSITGSGGSTYYADSVKGRFTISRDNAKNTLYLQMNSLRPEDTAVYYCAAYIRPDTYLSRDYRKYDYWGQGTLVTVSS
IC50 [17]: 91 pM
IC50 [18]: 188 pM
IC50 [19]: 137 pM
koff [20]: 0.00021 s⁻¹
Kd [21]: 260 pM
kon [21]: 800000 M⁻¹ s⁻¹

Continued, in another order:

binding result [1]: no binding (tested: 500 nM to 160 pM)
EC50 [2]: 385 pM
IC50 [3]: 288 pM
IC50 [4]: 777 pM
PE mean fluorescence [5]: 434
PE mean fluorescence [6]: 1700
PE mean fluorescence [7]: 347
PE mean fluorescence [8]: 4580
PE mean fluorescence [9]: 12800
B1: RANKL6 (VHH)
VHH: EVQLVESGGGLMQTGGSLRLSCAASGVTYSYYTASWFRQAPGKEREFVAAISPSGNTYYADSVKGRFTISRDNGKHTMYLQMNSLNPEDTAVYFCAIRATDSIYYASSYRHWGQGTQVTVSS
notes: not shown: c-myc and His6 tags
binding result [10]: no binding (tested: approximately 100 nM)
binding result [11]: no binding (tested: approximately 100 nM)
binding result [12]: no binding (tested: approximately 100 nM)

IC50 [17]: 138 pM
IC50 [18]: 87 pM
IC50 [19]: 380 pM
koff [20]: 6.72e-05 s⁻¹
Kd [21]: 160 pM
kon [21]: 500000 M⁻¹ s⁻¹
B3: RANKL18hum6 (VHH)
VHH: EVQLVESGGGLVQPGGSLRLSCAASGRTFSRSAMGWFRQAPGKGREFVGFITGSGGTTYYADSVKGRFTISRDNAQNPVYLQMNSLRPEDTAVYYCAVYRRTYISSTYSESSEYDYWGQGTLVTVSS

binding result [1]: no binding (tested: 500 nM to 160 pM)
EC50 [2]: 542 pM
IC50 [3]: 137 pM
IC50 [4]: 341 pM
IC50 [22]: 238 pM
IC50 [23]: 130 pM
PE mean fluorescence [5]: 1350
PE mean fluorescence [6]: 2280
PE mean fluorescence [7]: 381
PE mean fluorescence [8]: 3360
PE mean fluorescence [9]: 4860
B5: RANKL9 (VHH)
VHH: EVQLVESGGGLVQAGGSLRLTCAASGRTFRSYAMGWFRQAPGKEREFVAAINYSGGSTNYADSVKGRFTISRDNAKNTLYLQMNSLEPEDTAVYYCAAGSGYASLSYYSTERAYTYWGQGTQVTVSS
notes: as for B1
binding result [10]: no binding (tested: approximately 100 nM)
binding result [11]: no binding (tested: approximately 100 nM)
binding result [12]: no binding (tested: approximately 100 nM)
